The results in this text go back to publication PMC3460914, “The Polyoma Virus Large T Binding Protein p150 Is a Transcriptional Repressor of c-MYC”.

Data set [1] deals with T1, GST-p150 (human, UniProt F5H433 1-1005).
T1 sequence: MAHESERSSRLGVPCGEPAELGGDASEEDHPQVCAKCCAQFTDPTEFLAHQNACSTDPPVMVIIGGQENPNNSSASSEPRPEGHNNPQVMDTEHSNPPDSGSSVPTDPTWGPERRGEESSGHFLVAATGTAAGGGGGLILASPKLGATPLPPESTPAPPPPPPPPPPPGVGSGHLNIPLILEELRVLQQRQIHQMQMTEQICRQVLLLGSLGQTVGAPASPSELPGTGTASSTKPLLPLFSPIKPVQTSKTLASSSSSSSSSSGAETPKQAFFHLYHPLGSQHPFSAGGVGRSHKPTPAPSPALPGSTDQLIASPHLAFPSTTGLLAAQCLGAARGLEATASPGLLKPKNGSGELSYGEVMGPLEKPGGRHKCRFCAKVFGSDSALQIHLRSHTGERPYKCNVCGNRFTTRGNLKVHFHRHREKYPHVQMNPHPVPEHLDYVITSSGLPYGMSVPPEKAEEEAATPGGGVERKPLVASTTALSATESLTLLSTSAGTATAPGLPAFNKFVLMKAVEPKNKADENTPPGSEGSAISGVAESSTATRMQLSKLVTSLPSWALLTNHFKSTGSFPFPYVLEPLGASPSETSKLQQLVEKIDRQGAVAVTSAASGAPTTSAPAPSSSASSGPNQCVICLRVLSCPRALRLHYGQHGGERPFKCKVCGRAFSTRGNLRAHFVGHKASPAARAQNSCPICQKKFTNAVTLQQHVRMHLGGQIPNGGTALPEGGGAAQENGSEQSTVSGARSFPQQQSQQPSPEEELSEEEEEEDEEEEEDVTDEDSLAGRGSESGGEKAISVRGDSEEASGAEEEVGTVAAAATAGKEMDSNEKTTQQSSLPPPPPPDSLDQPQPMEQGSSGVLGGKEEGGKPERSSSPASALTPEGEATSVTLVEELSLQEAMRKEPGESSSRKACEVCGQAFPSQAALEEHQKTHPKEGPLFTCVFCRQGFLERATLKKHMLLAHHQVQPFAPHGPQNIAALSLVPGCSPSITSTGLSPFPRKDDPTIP
Kind of data set: EMSA; 100 ng protein, 200 ng poly(dA-dT); 10 mM HEPES pH 7.5, 25 nM KCl (so in the source), 2.5 mM MgCl (so in the source), 5 µl ZnCl, 3% glycerol, 2 µg BSA, 200 ng poly(dA-dT); temperature not stated. The conditions noted are these: protein: recombinant; tags: GST; label: 32P (probe); blunt. A general note: In EMSA bound probe runs differently from free probe, usually more slowly.

Data set [2] concerns the target T1, GST-p150. Description: competition; 50x unlabeled Oct1 vs labeled NHE III1; 10 mM HEPES pH 7.5, 25 nM KCl (so in the source), 2.5 mM MgCl (so in the source), 5 µl ZnCl, 3% glycerol, 2 µg BSA, 200 ng poly(dA-dT); temperature not stated. The note with it: protein: recombinant; tags: GST; blunt.

B1: NHE III1 of c-MYC promoter (dsDNA)
DNA 1: TGGGGAGGGTGGGGAGGGTGGGGAAGG
DNA 2: CCTTCCCCACCCTCCCCACCCTCCCCA
On to B1, for which the binding result in data set [1] is listed as “binds”.

B2: p150 consensus sequence (CS) (dsDNA)
DNA 1: GGATCACTGGGTGGGAATCACGCT
DNA 2: AGCGTGATTCCCACCCAGTGATCC
For the molecule B2, the binding result in data set [1] was “binds”.

B3: Oct1 binding site (dsDNA)
DNA 1: TGTCGAATGCAAATCACTAGAA
DNA 2: TTCTAGTGATTTGCATTCGACA
As for B3, the binding result in data set [2] is on record as “no binding”.
